The text below walks through data of article PMC8488244.

Assay [1] concerns the target GmCHS7:PDZlig-CeGFP (Glycine max) (UniProt P30081).
Assay [2] shares this target. The source holds these as a separate data set.

UniProt P30081, sequence (P30081 whole entry): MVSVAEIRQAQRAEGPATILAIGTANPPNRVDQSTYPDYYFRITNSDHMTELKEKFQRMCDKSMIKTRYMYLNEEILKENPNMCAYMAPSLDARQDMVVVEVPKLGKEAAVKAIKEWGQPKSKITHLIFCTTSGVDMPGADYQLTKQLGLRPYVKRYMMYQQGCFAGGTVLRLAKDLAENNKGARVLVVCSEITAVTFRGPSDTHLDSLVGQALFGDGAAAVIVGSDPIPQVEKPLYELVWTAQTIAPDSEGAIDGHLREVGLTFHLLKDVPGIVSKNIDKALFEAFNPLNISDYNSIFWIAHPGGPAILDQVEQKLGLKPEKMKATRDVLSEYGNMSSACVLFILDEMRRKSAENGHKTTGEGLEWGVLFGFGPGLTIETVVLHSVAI

For the substance “GuCHR:PDZ-NeGFP (from UniProt Q61234 81-164)”, the CHR ratio (CHR product to total CHS product) in E. coli BL21(DE3)-pYH153 in assay [1] was 54.7%. Besides, the titer of apigenin in strain DHF-2 (pYH153) compared to DHF-1 (pYH141) in assay [2] amounted to 1.1 fold.
